pEC50: −log10 of the molar value.

The target in assay [1] is monkey PD-1 (ACRO, His tag) (monkey) (UniProt B0LAJ3). As to the kind of experiment: ELISA, monkey PD-1 (His tag) coated, anti-human IgG Fc-HRP. Background: An ELISA detects its analyte on a solid surface through an enzyme-linked reagent.
In assay [2] the target is human VEGF (ACRO, His tag) (human) (UniProt P15692). As to the kind of experiment: ELISA, human VEGF (His tag) coated, anti-human IgG Fc-HRP.
For assay [3], the target named is biotin-labeled human VEGF (ACRO, biotinylated protein) (human) (UniProt P15692). As to the kind of experiment: dual (bridging) ELISA: human PD-1 (His tag) coated, antibody, then biotinylated human VEGF, streptavidin-HRP.
Sequence of biotin-labeled human VEGF (ACRO, biotinylated protein) (human) (P15692 other isoform, or with tags, fused parts or gaps limits assumed): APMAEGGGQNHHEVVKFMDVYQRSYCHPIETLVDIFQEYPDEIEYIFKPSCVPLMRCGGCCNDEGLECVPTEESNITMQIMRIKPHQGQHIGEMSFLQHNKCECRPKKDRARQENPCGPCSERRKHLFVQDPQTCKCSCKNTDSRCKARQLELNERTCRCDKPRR

Sequence of monkey PD-1 (ACRO, His tag) (monkey) (B0LAJ3 entry or part of it limits assumed, form in doubt): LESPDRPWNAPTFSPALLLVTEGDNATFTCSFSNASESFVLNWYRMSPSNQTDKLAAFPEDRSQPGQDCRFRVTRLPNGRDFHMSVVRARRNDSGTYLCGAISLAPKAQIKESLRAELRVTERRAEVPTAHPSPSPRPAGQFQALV
Sequence of human VEGF (ACRO, His tag) (human) (P15692 other isoform, or with tags, fused parts or gaps limits assumed): as the sequence (P15692 other isoform, or with tags, fused parts or gaps limits assumed) above

In general, pEC50 refers to the negative decadic logarithm of the EC50, by convention in mol/L. In assay [1], Keytruda (antibody) gave a pEC50 of 9.73 and a TOP OD of 3.08 OD450.

Consider Opdivo (antibody), for which the TOP OD in assay [2] came to 0.048 OD450; in assay [1] it was 2.99 OD450; in assay [3] it was 0.048 OD450. The substance further showed a pEC50 in assay [1] of 9.82.

The record behind these values is patent US20260055173A1.
